Experiments:
Test in all cases: holdup assay
Parameters in all cases: key: below the threshold = too weak to quantify, mostly under pKd 3.1 to 4
MPP7, Q5T2T1 = target: T1, MPP7, Q5T2T1
T1 sequence (Q5T2T1 134-230, limits assumed, looked up): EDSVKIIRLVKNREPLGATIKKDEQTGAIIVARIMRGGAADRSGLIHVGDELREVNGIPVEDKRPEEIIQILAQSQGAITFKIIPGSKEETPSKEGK

MAGI2_6, Q86UL8 = target: MAGI2_6, Q86UL8
CARD11, Q9BXL7 = target: T2, CARD11, Q9BXL7
T2 sequence (Q9BXL7 662-765, limits assumed, looked up): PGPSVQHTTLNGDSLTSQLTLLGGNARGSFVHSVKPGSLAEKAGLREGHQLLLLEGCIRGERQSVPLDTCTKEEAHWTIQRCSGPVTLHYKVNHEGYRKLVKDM

FRMPD1, Q5SYB0 = target: T3, FRMPD1, Q5SYB0
T3 sequence (Q5SYB0 52-145, limits assumed, looked up): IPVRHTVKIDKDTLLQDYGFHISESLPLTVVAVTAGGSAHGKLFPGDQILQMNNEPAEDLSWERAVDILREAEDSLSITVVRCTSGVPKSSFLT

APBA2_1, Q99767 = target: T4, APBA2_1, Q99767
T4 sequence (Q99767 563-664, limits assumed, looked up): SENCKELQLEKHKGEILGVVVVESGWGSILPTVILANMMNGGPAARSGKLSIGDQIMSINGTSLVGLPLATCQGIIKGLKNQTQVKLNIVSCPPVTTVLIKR

MAGI1_1, Q96QZ7 = target: MAGI1_1, Q96QZ7
Sequence of MAGI1_1, Q96QZ7 (Q96QZ7 1-106): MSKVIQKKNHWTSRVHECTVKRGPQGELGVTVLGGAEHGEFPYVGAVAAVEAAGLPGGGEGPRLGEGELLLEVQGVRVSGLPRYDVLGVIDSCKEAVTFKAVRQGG

SNTG1, Q9NSN8 = target: T5, SNTG1, Q9NSN8
T5 sequence (Q9NSN8 52-150, limits assumed, looked up): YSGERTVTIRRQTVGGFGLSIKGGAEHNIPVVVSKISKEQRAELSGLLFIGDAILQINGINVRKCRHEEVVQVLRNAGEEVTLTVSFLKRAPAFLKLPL

FRMPD2_1, Q68DX3 = target: FRMPD2_1, Q68DX3
Sequence of FRMPD2_1, Q68DX3 (Q68DX3 770-861): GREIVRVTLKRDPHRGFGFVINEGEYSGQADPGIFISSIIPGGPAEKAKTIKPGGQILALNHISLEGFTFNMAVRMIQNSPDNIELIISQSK

NHERF3_4, Q5T2W1 = target: T6, NHERF3_4, Q5T2W1
T6 sequence (Q5T2W1 373-468, limits assumed, looked up): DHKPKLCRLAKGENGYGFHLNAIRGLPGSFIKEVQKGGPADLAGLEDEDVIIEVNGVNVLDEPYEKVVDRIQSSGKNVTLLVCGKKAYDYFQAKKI

CASK, O14936 = target: CASK, O14936
Sequence of CASK, O14936 (O14936 487-570): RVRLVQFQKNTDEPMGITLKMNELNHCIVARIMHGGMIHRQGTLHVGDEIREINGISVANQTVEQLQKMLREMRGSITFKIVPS

SNTA1, Q13424 = target: T7, SNTA1, Q13424
T7 sequence (Q13424 82-180, limits assumed, looked up): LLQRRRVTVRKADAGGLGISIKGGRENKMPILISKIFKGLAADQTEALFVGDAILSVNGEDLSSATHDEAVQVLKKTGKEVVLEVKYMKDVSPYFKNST

HTRA3, P83110 = target: T8, HTRA3, P83110
T8 sequence (P83110 354-453, limits assumed, looked up): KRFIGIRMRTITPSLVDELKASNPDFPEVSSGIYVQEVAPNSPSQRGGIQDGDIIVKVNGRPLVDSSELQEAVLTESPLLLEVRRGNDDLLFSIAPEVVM

MPP6, Q9NZW5 = target: T9, MPP6, Q9NZW5
T9 sequence (Q9NZW5 125-219, limits assumed, looked up): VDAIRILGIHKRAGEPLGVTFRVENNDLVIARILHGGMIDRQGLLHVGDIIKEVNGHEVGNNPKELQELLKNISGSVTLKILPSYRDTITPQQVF

GRIP2_4, Q9C0E4 = target: GRIP2_4, Q9C0E4
Sequence of GRIP2_4, Q9C0E4 (Q9C0E4 446-548): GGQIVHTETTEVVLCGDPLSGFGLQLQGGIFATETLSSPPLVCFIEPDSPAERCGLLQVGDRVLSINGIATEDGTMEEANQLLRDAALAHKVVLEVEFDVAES

RHPN1, Q8TCX5 = target: T10, RHPN1, Q8TCX5
T10 sequence (Q8TCX5 508-602, limits assumed, looked up): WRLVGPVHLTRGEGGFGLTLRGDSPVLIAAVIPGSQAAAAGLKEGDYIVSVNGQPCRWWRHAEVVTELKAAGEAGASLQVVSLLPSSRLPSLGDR

PDZD7_3, Q9H5P4 = target: T11, PDZD7_3, Q9H5P4
T11 sequence (Q9H5P4 857-944, limits assumed, looked up): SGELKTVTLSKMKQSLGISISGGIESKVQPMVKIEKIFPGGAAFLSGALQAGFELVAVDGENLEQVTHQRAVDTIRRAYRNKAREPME

TJP3_3, O95049 = target: T12, TJP3_3, O95049
T12 sequence (O95049 375-456, limits assumed, looked up): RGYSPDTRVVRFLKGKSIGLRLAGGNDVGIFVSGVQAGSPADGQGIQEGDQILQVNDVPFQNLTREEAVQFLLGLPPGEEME

ARHGEF11, O15085 = target: T13, ARHGEF11, O15085
T13 sequence (O15085 42-136, limits assumed, looked up): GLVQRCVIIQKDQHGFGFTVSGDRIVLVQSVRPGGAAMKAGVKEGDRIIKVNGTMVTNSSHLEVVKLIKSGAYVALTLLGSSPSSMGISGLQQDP

APBA3_1, O96018 = target: T14, APBA3_1, O96018
T14 sequence (O96018 389-490, limits assumed, looked up): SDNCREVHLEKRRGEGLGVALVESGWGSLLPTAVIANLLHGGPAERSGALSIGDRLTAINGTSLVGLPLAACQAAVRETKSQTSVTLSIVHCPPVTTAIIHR

GRIP2_7, Q9C0E4 = target: GRIP2_7, Q9C0E4
Sequence of GRIP2_7, Q9C0E4 (Q9C0E4 934-1023): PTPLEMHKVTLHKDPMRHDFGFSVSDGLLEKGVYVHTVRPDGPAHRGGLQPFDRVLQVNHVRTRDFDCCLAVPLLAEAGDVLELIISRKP

TJP1_2, Q07157 = target: TJP1_2, Q07157
Sequence of TJP1_2, Q07157 (Q07157 181-274): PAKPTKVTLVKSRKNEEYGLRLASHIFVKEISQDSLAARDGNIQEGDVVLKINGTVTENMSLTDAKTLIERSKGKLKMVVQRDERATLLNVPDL

TX1BP3, O14907 = target: T15, TX1BP3, O14907
T15 sequence (O14907 10-122, limits assumed, looked up): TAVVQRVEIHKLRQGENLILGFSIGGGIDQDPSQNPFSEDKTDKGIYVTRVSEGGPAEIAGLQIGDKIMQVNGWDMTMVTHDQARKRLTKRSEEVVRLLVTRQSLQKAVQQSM

[1] = plain residues with an end cap or a label only (N-terminal biotin on a linker: ahx)
[2] = plain residues with an end cap or a label only (N-terminal biotin on a linker: (peg)3)

Sequence of MAGI2_6, Q86UL8 (Q86UL8 1141-1229): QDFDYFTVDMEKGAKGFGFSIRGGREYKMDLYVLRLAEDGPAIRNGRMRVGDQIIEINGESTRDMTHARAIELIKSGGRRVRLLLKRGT

B1: ABCA1, O95477 (peptide)
chain: QDEKVKESYV
pKd (MPP7, Q5T2T1; [1]): below the threshold
pKd (MAGI2_6, Q86UL8; [1]): 4.53
pKd (CARD11, Q9BXL7; [1]): below the threshold
pKd (FRMPD1, Q5SYB0; [1]): below the threshold
pKd (APBA2_1, Q99767; [1]): below the threshold
pKd (MAGI1_1, Q96QZ7; [1]): below the threshold
pKd (SNTG1, Q9NSN8; [1]): 5.24
pKd (FRMPD2_1, Q68DX3; [1]): 3.53
pKd (NHERF3_4, Q5T2W1; [1]): 3.5
pKd (CASK, O14936; [1]): below the threshold
pKd (SNTA1, Q13424; [1]): 5.9
pKd (HTRA3, P83110; [1]): 3.55
pKd (MPP6, Q9NZW5; [1]): below the threshold
pKd (GRIP2_4, Q9C0E4; [1]): below the threshold
pKd (RHPN1, Q8TCX5; [1]): 4.9
pKd (PDZD7_3, Q9H5P4; [1]): 5.35
pKd (TJP3_3, O95049; [1]): below the threshold
pKd (ARHGEF11, O15085; [1]): 4.3
pKd (APBA3_1, O96018; [1]): below the threshold
pKd (GRIP2_7, Q9C0E4; [1]): 3.59
pKd (TJP1_2, Q07157; [1]): below the threshold
pKd (TX1BP3, O14907; [1]): 4.74

B2: WNV-NS5, Q9Q6P4 (peptide)
chain: RYEDTTLVEDTVL
pKd (MPP7, Q5T2T1; [2]): below the threshold
pKd (MAGI2_6, Q86UL8; [2]): 3.78
pKd (CARD11, Q9BXL7; [2]): below the threshold
pKd (FRMPD1, Q5SYB0; [2]): below the threshold
pKd (APBA2_1, Q99767; [2]): below the threshold
pKd (MAGI1_1, Q96QZ7; [2]): 3.62
pKd (SNTG1, Q9NSN8; [2]): below the threshold
pKd (FRMPD2_1, Q68DX3; [2]): below the threshold
pKd (NHERF3_4, Q5T2W1; [2]): 3.96
pKd (CASK, O14936; [2]): below the threshold
pKd (SNTA1, Q13424; [2]): 4.14
pKd (HTRA3, P83110; [2]): below the threshold
pKd (MPP6, Q9NZW5; [2]): below the threshold
pKd (GRIP2_4, Q9C0E4; [2]): below the threshold
pKd (RHPN1, Q8TCX5; [2]): 4.41
pKd (PDZD7_3, Q9H5P4; [2]): 4.54
pKd (TJP3_3, O95049; [2]): below the threshold
pKd (ARHGEF11, O15085; [2]): 3.99
pKd (APBA3_1, O96018; [2]): below the threshold
pKd (GRIP2_7, Q9C0E4; [2]): below the threshold
pKd (TJP1_2, Q07157; [2]): 3.55
pKd (TX1BP3, O14907; [2]): below the threshold

B3: RTKN, Q9BST9 (peptide)
chain: QPRTWLQSPV
pKd (MPP7, Q5T2T1; [1]): below the threshold
pKd (MAGI2_6, Q86UL8; [1]): below the threshold
pKd (CARD11, Q9BXL7; [1]): below the threshold
pKd (FRMPD1, Q5SYB0; [1]): below the threshold
pKd (APBA2_1, Q99767; [1]): below the threshold
pKd (MAGI1_1, Q96QZ7; [1]): below the threshold
pKd (SNTG1, Q9NSN8; [1]): 3.52
pKd (FRMPD2_1, Q68DX3; [1]): below the threshold
pKd (NHERF3_4, Q5T2W1; [1]): below the threshold
pKd (CASK, O14936; [1]): below the threshold
pKd (SNTA1, Q13424; [1]): below the threshold
pKd (HTRA3, P83110; [1]): below the threshold
pKd (MPP6, Q9NZW5; [1]): below the threshold
pKd (GRIP2_4, Q9C0E4; [1]): below the threshold
pKd (RHPN1, Q8TCX5; [1]): 3.7
pKd (PDZD7_3, Q9H5P4; [1]): below the threshold
pKd (TJP3_3, O95049; [1]): below the threshold
pKd (ARHGEF11, O15085; [1]): below the threshold
pKd (APBA3_1, O96018; [1]): below the threshold
pKd (GRIP2_7, Q9C0E4; [1]): below the threshold
pKd (TJP1_2, Q07157; [1]): below the threshold
pKd (TX1BP3, O14907; [1]): 6.05

— PMC9482650, “Quantitative fragmentomics allow affinity mapping of interactomes” (Nature Communications, 2022)
